These results are taken from patent publication US20070031956.

The subject of the data set is S6 peptide (RRRLSSLRA).

Chain of Full-length human Pim-1 kinase (residues M1-K313) with N-terminal HexaHis tag and thrombin cleavage site (chain, as listed by the source): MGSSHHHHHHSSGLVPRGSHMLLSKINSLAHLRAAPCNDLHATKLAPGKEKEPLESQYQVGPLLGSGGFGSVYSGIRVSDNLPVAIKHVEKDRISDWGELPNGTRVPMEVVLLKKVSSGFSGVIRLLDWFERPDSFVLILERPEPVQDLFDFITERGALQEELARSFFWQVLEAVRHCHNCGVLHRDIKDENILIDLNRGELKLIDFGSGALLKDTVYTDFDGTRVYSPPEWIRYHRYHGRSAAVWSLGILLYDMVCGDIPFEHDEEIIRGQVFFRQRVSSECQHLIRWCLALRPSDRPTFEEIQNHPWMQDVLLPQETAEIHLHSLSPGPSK

Consider “Full-length human Pim-1 kinase (residues M1-K313) with N-terminal HexaHis tag and thrombin cleavage site”, for which the “peptide Km (coupled-enzyme kinase assay)” value was “peptide Km=51±2 µM”.
